{
  "source": "paper PMC11260460",
  "about": "“A Plasmodium apicoplast-targeted unique exonuclease/FEN exhibits interspecies functional differences attributable to an insertion that alters DNA-binding”",
  "binders": {"B1": {"name": "BLI blunt-end dsDNA (34 bp) (dsDNA)", "DNA 1": "CAGTCCGAGCTAGGCAACATACGATAATCCATAC", "DNA 2": "GTATGGATTATCGTATGTTGCCTAGCTCGGACTG"}, "B2": {"name": "5'-flap DNA (dsDNA)", "DNA 1": "AAAACGTCAACTAGCTTCTCAAACAGCTCATATATCTTAA", "DNA 2": "B1 DNA 1", "DNA 3": "TTAAGATATATGAGCAGTATGGATTATCGTATGTTGCCTAGCTCGGACTG"}, "B3": {"name": "Blunt-end dsDNA (14 bp) (dsDNA)", "DNA 1": "CTAGTGTACATGCA", "DNA 2": "TGCATGTACACTAG"}},
  "key": {"PfExoΔins [1]": {"target": "T1, PfExoΔins (Plasmodium falciparum 3D7, UniProt O96139 91-577, del241-393)", "experiment": "BLI; EMSA: 400 nM FAM-DNA, binding buffer as printed 200 mM HEPES pH 8.0, 500 mM NaCl, 10 mM DTT, 1 mg/ml BSA, 10% glycerol, 2 mM MgCl2, 30 min on ice, 6% native PAGE; BLI: 1x kinetic buffer in 1x PBS, Octet R8, 1:1 global fit", "conditions": "protein: recombinant; tags: C-terminal 6xHis; label: 5' biotin on strand 1; blunt"}, "PfExo [2]": {"target": "T2, PfExo (Plasmodium falciparum 3D7, UniProt O96139 91-577)", "T2 sequence": "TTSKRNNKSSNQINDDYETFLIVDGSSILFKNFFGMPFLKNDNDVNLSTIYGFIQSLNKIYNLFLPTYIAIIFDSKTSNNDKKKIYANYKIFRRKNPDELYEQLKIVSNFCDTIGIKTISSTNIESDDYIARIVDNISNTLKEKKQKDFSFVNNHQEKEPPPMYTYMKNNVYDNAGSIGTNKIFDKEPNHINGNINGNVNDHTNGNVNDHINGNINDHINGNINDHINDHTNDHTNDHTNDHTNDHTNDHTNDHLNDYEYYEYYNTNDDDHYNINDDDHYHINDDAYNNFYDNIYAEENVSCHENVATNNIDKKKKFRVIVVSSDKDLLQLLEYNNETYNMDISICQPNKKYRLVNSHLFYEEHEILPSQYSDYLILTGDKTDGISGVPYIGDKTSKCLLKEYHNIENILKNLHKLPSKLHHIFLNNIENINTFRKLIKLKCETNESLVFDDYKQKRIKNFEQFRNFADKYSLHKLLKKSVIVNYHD", "experiment": "BLI; KD value only in figure; EMSA: 400 nM FAM-DNA, binding buffer as printed 200 mM HEPES pH 8.0, 500 mM NaCl, 10 mM DTT, 1 mg/ml BSA, 10% glycerol, 2 mM MgCl2, 30 min on ice, 6% native PAGE; BLI: 1x kinetic buffer in 1x PBS, Octet R8, 1:1 global fit", "conditions": "protein: recombinant; tags: C-terminal 6xHis; label: 5' biotin on strand 1; blunt"}, "PfExo [3]": {"target": "T2, PfExo", "experiment": "EMSA; 2 mM Mg2+; EMSA: 400 nM FAM-DNA, binding buffer as printed 200 mM HEPES pH 8.0, 500 mM NaCl, 10 mM DTT, 1 mg/ml BSA, 10% glycerol, 2 mM MgCl2, 30 min on ice, 6% native PAGE; BLI: 1x kinetic buffer in 1x PBS, Octet R8, 1:1 global fit", "conditions": "protein: recombinant, tags: C-terminal 6xHis"}, "PfExoΔins [4]": {"target": "T1, PfExoΔins", "experiment": "EMSA; 2 mM Mg2+; EMSA: 400 nM FAM-DNA, binding buffer as printed 200 mM HEPES pH 8.0, 500 mM NaCl, 10 mM DTT, 1 mg/ml BSA, 10% glycerol, 2 mM MgCl2, 30 min on ice, 6% native PAGE; BLI: 1x kinetic buffer in 1x PBS, Octet R8, 1:1 global fit", "conditions": "protein: recombinant, tags: C-terminal 6xHis"}},
  "data": [
    {"binder": "B1", "values": [
      {"measurement": "binding signal", "setting": "PfExoΔins [1]", "value": "~5", "unit": "fold higher KD than PfExo"},
      {"measurement": "binding result", "setting": "PfExo [2]", "value": "binds"}
    ]},
    {"binder": "B2", "values": [
      {"measurement": "binding result", "setting": "PfExo [3]; label: FAM, 5' flap", "value": "binds"},
      {"measurement": "binding result", "setting": "PfExoΔins [4]; label: FAM, 5' flap", "value": "no binding"}
    ]},
    {"binder": "AAAACGTCAACTAGCTTCTCAAACACCTCATATATCTTAA (ssDNA)", "note": "[ssDNA 5'-3' exo substrate]", "values": [
      {"measurement": "binding result", "setting": "PfExo [3]; label: 3' 6-FAM, single strand", "value": "binds"}
    ]},
    {"binder": "AAAACGTCAACTAGCTTCTCAAACAGCTCATATATCTTAA (ssDNA)", "note": "[ssDNA 3'-5' exo substrate]", "values": [
      {"measurement": "binding result", "setting": "PfExo [3]; label: 5' 6-FAM, single strand", "value": "binds"}
    ]},
    {"binder": "B3", "values": [
      {"measurement": "binding result", "setting": "PfExoΔins [4]; label: 3' 6-FAM on strand 1, blunt", "value": "no binding"}
    ]}
  ]
}
